According to patent US20210060068A1 (Stanford University, published 2021):
Substitutions are numbered along the chain they refer to. Numbers in names are those of the source.

T1: wild-type mouse IL-2Rβ (mouse, UniProt P16297 27-240, limits assumed)
T1 construct: Recombinant protein coated on the SPR chip or used to stain yeast; also called wild-type IL-2Rβ; mIL-2Rβ
T1 sequence: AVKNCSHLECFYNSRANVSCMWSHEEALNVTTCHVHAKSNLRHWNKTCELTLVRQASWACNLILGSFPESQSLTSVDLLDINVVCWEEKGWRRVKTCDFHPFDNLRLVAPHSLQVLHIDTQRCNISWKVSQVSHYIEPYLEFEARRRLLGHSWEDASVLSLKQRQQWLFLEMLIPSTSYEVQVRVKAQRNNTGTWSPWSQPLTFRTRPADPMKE

B1: wild-type mouse IL-2 (ligand)
chain: APTSSSTSSSTAEAQQQQQQQQQQQQHLEQLLMDLQELLSRMENYRNLKLPRMLTFKFYLPKQATELKDLQCLEDELGPLRHVLDLTQSKSFQLEDAENFISNIRVTVVKLKGSDNTFECQFDDESATVVDFLRRWIAFCQSIISTSPQ
notes: Soluble protein flowed over the SPR chip; also called wt mIL-2; wild-type IL-2
B2: orthogonal mouse IL-2Rβ H134D Y135F (receptor)
chain: T1 sequence with H134D, Y135F
notes: Recombinant protein coated on the SPR chip or used to stain yeast; also called orthoIL-2Rβ; mIL-2Rβ H134D Y135F
B3: ortho human IL-2Rβ H133D Y134F mutant tetramers (receptor)
chain: AVNGTSQFTCFYNSRANISCVWSQDGALQDTSCQVHAWPDRRRWNQTCELLPVSQASWACNLILGAPDSQKLTTVDIVTLRVLCREGVRWRVMAIQDFKPFENLRLMAPISLQVVHVETHRCNISWEISQASDFFERHLEFEARTLSPGHTWEEAPLLTLKQKQEWICLETLTPDTQYEFQVRVKPLQGEFTTWSPWSQPLAFRTKPAALGKDT
notes: Tetramers used to stain yeast; also called ortho-hIL-2Rβ; ortho hIL-2Rβ

How the values were obtained:
wild-type mouse IL-2Rβ = biological target: T1, wild-type mouse IL-2Rβ; test: SPR, soluble IL-2 over a receptor-coated chip, 1:1 binding model
Protocol: Binding was determined by surface plasmon resonance (SPR) and curves were fitted using a 1:1 binding model.

wild-type mouse IL-2 = biological target: B1; test: surface plasmon resonance
[1] = biological target: T2, yeast-displayed wild-type human IL-2 (human, UniProt P60568 21-153); test: FACS, yeast-displayed hIL-2 stained with receptor tetramers
T2 construct: also called wild-type IL-2; hIL-2
Protocol: We introduced the H133D Y134F mutations that were used to create the mouse orthol L-2Rβ into human IL-2Rβ, as these residues are highly conserved between mouse and human.
Yeast display of IL-2. […] Transformed yeast were passaged once in SDCAA and yeast cultures in log phase were pelleted and resuspended at an OD600 of 1.0 in SGCAA induction media containing 10% SDCAA and cultured for 24 hr at 20° C.

T2 sequence (P60568 21-153): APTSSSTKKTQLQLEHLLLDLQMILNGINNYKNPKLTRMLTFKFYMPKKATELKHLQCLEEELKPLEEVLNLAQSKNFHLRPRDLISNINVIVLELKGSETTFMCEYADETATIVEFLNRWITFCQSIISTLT

B1: binds (wild-type mouse IL-2Rβ).

B2: no binding (wild-type mouse IL-2).

B3: no binding [1].
